Results published in patent US10918726B2, “Carbosilane dendrimer and aggregatable carrier obtained using said dendrimer for drug delivery system” (Quarrymen & Co. Inc., priority 2014, dated 2021).

Experiment: Particle size of raw materials and micelles by dynamic light scattering (DLS, ZETASIZER NANO-S)
Type: physicochemical
Conditions: for particle size: DLS after overnight incubation at 37° C., measured at 25° C.; for Particle diameter peak by number / Particle diameter peak by scattering intensity / Zeta Average (average particle diameter): Table 1, raw materials and products in PBS, measured 5 times at 25° C.
Protocol: After vortex, the solution was stood at 37° C. for overnight incubation to bind GFP and the silole dendrimer, and subsequently to form the micelles. The incubation time for this experiment was about 16 to 18 hours. The properties of the micelle particles in the solution were measured by using dynamic light scattering method (DLS; Dynamic light scattering).
Also, the particle size in the reaction mixture was measured at 25° C. by using ZETASIZER NANO-S(manufactured by Malvern Instrument Ltd.) with a laser beam wavelength of 532 nm.
It was measured whether the micelles including each drug are formed in the sample to which each model drug is added; and if the micelles including the drug are formed, their particle size were measured by using the dynamic light scattering method. Here, DiI, Oil orange SS, and goat anti mouse IgG-Alexa 610 were used as drug models.
The particle properties of the target peptide sequence-binding micelle were measured by a dynamic light scattering method as the same as used in the example 1 (see FIG. 11). […] As a result, the particles having the particle size of about 100 nm to 200 nm were confirmed as the same as those in the example 1.

Row | Compound | particle size | Particle diameter peak by number [nm] | Particle diameter peak by scattering intensity [nm] | Zeta Average (average particle diameter) [nm]
1 | 20 μM GFP only: green fluorescent protein, SEQ ID NO: 1, cysteine at position 251, cysteine 60 replaced with serine | about 4 nm | 4.682 | 838.8 | 860.7
2 | C[Si](C)(CCC[Si](CCCBr)(CCCBr)CCCBr)CCC[Si](CCCBr)(CCCBr)CCCBr [50 μM Silole only] | about 650 nm | 649.3 | 664.6 | 894.5
